From IntAct's records for PubMed 17699755

Biological target: hfr1_arath HFR1 (UniProt Q9FE22)
Sequence (Q9FE22 whole entry): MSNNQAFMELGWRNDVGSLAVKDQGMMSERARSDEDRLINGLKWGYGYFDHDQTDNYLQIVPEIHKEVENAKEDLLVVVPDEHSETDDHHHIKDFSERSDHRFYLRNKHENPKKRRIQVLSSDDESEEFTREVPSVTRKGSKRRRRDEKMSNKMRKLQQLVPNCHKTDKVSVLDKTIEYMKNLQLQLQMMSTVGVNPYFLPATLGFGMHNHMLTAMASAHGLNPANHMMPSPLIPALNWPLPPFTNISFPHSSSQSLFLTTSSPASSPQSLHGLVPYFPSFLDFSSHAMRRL

Chain of Transcription factor LAF1 (Arabidopsis thaliana (Mouse-ear cress)), Q9M0K4 R97A (Q9M0K4 whole entry R97A): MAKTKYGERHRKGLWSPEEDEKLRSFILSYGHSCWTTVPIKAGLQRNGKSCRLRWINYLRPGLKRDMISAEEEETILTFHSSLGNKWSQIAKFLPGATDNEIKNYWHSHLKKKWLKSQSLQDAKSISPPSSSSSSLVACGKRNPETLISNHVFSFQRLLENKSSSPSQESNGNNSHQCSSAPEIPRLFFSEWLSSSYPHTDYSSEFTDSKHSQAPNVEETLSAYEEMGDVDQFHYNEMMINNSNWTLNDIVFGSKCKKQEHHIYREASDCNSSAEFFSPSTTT

Row | effect of a mutation on the interaction | Substance
1 | disrupting interaction | Transcription factor LAF1 (Arabidopsis thaliana (Mouse-ear cress)), Q9M0K4 R97A
2 | decreasing interaction | Transcription factor LAF1 (Arabidopsis thaliana (Mouse-ear cress)), Q9M0K4 W87A
